Data from paper PMC6635409.
“And” between values parts separate entries of the source, which are not always exact repeats. Equal entries are not always repeated.

Biological target: nicotinic acetylcholine receptor subunit α9 (CHRNA9) (human (endogenous in BT474, MDA-MB-231, A549, RT4, MIA PaCa-2 and clinical breast tumors)) (UniProt Q9UGM1)
Experiment: co-IP; endogenous proteins in MDA-MB-231 cells; reciprocal IPs, 1% NP40 lysis buffer, Protein G beads; IP ratio (IPR) against input, threshold >3% in both

UniProt Q9UGM1, sequence (Q9UGM1 23-479): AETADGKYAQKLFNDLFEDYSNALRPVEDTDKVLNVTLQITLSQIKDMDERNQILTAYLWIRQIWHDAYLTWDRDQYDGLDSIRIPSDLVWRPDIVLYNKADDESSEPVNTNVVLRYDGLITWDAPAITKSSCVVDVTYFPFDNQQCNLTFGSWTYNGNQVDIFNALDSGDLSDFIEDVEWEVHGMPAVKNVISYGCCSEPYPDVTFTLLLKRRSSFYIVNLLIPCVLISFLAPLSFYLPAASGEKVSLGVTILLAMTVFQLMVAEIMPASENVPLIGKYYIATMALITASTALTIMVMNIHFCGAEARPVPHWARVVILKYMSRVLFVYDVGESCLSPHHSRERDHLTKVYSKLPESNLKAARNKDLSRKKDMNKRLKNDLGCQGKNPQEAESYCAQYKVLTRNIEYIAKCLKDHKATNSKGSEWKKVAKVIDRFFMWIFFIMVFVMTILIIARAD

## ABCB1 (from UniProt P08183 1-1280) (natural protein)
  IP ratio (IPR): 3.05% and 25.1%
